Data set [1] concerns GNH nanocarrier (GP41 endosome release motif, DNA condensing motif, NLS) (synthetic construct). Nature of the data set: EMSA (agarose gel retardation). Conditions: not given in the material (gel retardation methods text absent); ethidium bromide staining. In general terms: Mobility shift assays separate free from complexed probe on a gel.
The subject of data set [2] is HNH nanocarrier (H5WYG endosome release motif, DNA condensing motif, NLS) (synthetic construct). In words: EMSA (agarose gel retardation). Conditions: not given in the material (gel retardation methods text absent); ethidium bromide staining.

pGL3 plasmid: the binding (N/P ratio for complete retardation) in data set [1] and in data set [2] was 1 in each case.
